In one series the target is thrombin (UniProt P00734;P00734 P00734:328-363,P00734:364-622). In words: EMSA; 10 mM MOPS pH 7.4, room temp; thrombin-bound aptamer does not hybridize FITC 15-mer complementary strand; PQQGDH-labeled aptamer bead assay detection limit 100. For orientation: Mobility shift assays separate free from complexed probe on a gel.
In series [1] the target is T1, bovine serum albumin (BSA) (Bos taurus, UniProt P02769 P02769:25-607). Nature of the series: control; PQQGDH-labeled aptamer, electrochemical bead capture assay; no BSA-concentration-dependent current. The note with it: G4 with inserted hairpin (15-nt loop 27-41, 5-bp stem). The method, then: Each sample solution (100 μL), which contained thrombin (0 to 10 μg/mL, […]) and the PQQGDH-labeled aptamer (0.1 U, approx. 10 μmol) prepared above in Procedure (2), was added to the DNA-immobilized carrier (10 μL) obtained above in Procedure (1), and the resulting mixture was stirred at room temperature for 15 minutes and then centrifuged. Using the thus-obtained supernatant (20 μL) and 10 mM MOPS (pH 7.2, 4 mL in total), which contained mPMS (1-methoxyphenazine methosulphate) (6 mM), PQQ (1 μM) and CaCl₂ (1 mM), as a reaction solution, a gold electrode as a working electrode and a platinum electrode as an opposing electrode, the response current was measured at an impression potential of +100 mV vs Ag/AgCl while adding glucose to a final concentration of 60 mM. The measurement was conducted at 25° C. With respect to each of sample solutions containing thrombin at 50 to 1,000 μg/mL ([…]), detection was similarly conduced by doubling the amounts of the DNA-immobilized carrier and ap-GDH to be employed.
T1 sequence (P02769 25-607, one chain of several): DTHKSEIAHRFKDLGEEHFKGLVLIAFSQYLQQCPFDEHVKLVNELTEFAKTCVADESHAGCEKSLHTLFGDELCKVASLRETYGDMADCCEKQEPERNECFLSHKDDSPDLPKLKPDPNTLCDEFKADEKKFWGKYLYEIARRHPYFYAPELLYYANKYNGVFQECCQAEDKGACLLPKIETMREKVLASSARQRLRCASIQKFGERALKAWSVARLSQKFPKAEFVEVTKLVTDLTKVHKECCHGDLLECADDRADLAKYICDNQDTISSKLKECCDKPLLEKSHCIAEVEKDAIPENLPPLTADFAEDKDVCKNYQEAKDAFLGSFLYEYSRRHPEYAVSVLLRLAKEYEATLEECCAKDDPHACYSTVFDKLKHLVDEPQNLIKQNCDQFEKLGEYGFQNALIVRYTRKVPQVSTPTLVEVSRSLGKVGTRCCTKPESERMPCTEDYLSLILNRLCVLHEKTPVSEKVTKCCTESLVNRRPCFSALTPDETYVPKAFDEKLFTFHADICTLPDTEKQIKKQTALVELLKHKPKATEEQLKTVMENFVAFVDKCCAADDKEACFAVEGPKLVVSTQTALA
A thrombin-concentration-dependent increase in current value was observed up to the level of 10 μg/mL. When BSA was used as a control in place of thrombin, the resultant current value was low, no BSA-concentration-dependent increase in current value was observed (FIG. 4(b)), and the detection limit was 100 ng/mL (2.7 nM) (FIG. 4(a)). […]

The target in series [2] is T1, bovine serum albumin (BSA). In words: SPR; control; PBS with 1 mM MgCl2 pH 7.4; also no response current at 1 uM in electrochemical assay. The note with it: label: biotin (SPR); hairpin. Here is the method: Biotinylated CaAp-1 was immobilized on an SPR chip (SA chip), and variations in SPR signal when IgE solutions of various concentrations (100 μL) were fed were observed. Upon measurement of interaction, an Mg2+-containing PBS buffer (138 mM NaCl, 2.7 mM KCl, 8.1 mM NaHPO₄, 1.1 mM KHPO₄, 1 mM MgCl₂, pH 7.4) was used, and the flow rate was set at 20 μL/min. Observed as a control were variations in SPR signal when bovine serum albumin (BSA) solutions of various concentrations were fed.
To beads (20 μL; solid amount: 10 μL) with “NEUTRAVIDIN” (trade name) immobilized as a biotin-binding substance thereon, the biotin-modified 14-mer capture oligonucleotide (0.5 nmol) was added. With 100 mM phosphate buffer and 150 mM […] (pH7.2), the total volume was adjusted to 500 μL. The resultant mixture was stirred overnight at 4° C. to immobilize the 14-mer capture oligonucleotide on the beads. […] Using the supernatant (20 μL) and 10 mM MOPS (pH 7.2), which contained CaCl₂ (1 mM) and PQQ (1 μM), as a reaction solution (total volume: 4 mL), a gold electrode as a working electrode and a platinum electrode as an opposing electrode, the response current was measured at an impression potential of +100 mV vs Ag/AgCl while adding glucose to a final concentration of 60 mM. […]
A general note: Surface plasmon resonance follows binding to a sensor surface in real time, without labels.

The results in this text go back to patent US20090305254, “Method and Apparatus for Assaying Test Substance in Sample” (TECHNO MEDICA CO., LTD., published 2009).

B1: structure-switching thrombin aptamer with inserted hairpin (22-46 nt) (ssDNA)
DNA: CACTGGTAGGTTGGTGTGGTTGGACGACGAATTCATGATCACGTCCTTGGGGCCAGTG
As for B1, the figures for the binding result (with thrombin; in series [1]) were “binds” and “no binding”, respectively.

For the molecule TCACGTTTATCCGTCCCTCCTAGTGGCGTGA (ssDNA) [CaAp-1 IgE-binding aptamer], the binding result in series [2] was “no binding”.
